Data taken from patent US5576294A, “Human Kunitz-type protease inhibitor variant” (Novo Nordisk A/S, priority 1992, dated 1996).

Columns and labels:
[1] = biological target: Human neutrophil elastase (human) (UniProt P08246); experiment: apparent Ki; 4 nM neutrophil elastase, substrate M4765, 30 min preincubation, residual activity at 405 nm
[2] = biological target: Human neutrophil elastase (human) (UniProt P08246)
[3] = biological target: bovine chymotrypsin (TLCK treated) (bovine) (UniProt P00766)
[4] = biological target: bovine chymotrypsin (TLCK treated) (bovine) (UniProt P00766); experiment: apparent Ki; 2.5 nM chymotrypsin, substrate S2586, 30 min preincubation, residual activity at 405 nm
[5] = biological target: T1, Bovine chymotrypsin (Bos taurus, UniProt P00766); experiment: Inhibition of serine proteinases: chymotrypsin; format: biochemical; conditions: Example 9; enzyme 2.5 nM, substrate S2586 0.6 mM, 30 min incubation; read-out: Apparent Ki (nM), Chymotrypsin
T1 construct: purchased Sigma Chemical Co. (St. Louis, Mo., U.S.A.)
Experimental: (§1) The three TFPI (domain II) variants were purified from yeast culture medium. Their concentrations were determined from the absorbance at 214 nm using BPTI as a standard. The final concentration was determined by titration with trypsin. Porcine trypsin and human recombinant proteins, factor VIIa, activated protein C (ACP), and tPA were obtained from Novo Nordisk A/S (Bagsvaerd, Denmark), so was human thrombin. Bovine chymotrypsin and glandular kallikrein were obtained from Sigma Chemical Co. (St. Louis, Mo., U.S.A.). Truncated human recombinant tissue factor was obtained from Corvas (San Diego, Calif., U.S.A.). Human neutrophil cathepsin G was purified from extracts of PMNs according to the method described by Baugh and Travis (Biochemistry 15 (1976) 836-843). Human plasmin was from Kabi (Stockholm, Sweden), uPA was from Serono (Milan, Italy), human factor Xa was a gift from Dr. W. Kisiel (Albuquerque, N.M., U.S.A.), and human plasma kallikrein was a gift from Dr. I Schousboe (Copenhagen, Denmark).
(§2) Peptidyl nitroanilide substrates, S2251, S2302, S2266, S2586, S2288, S2444, S2366, and S2238 were from Kabi (Stockholm, Sweden). S7388 and M4765 were from Sigma Chemical Co. (St. Louis, Mo., U.S.A.) and FXa-1 was from Nycomed (Oslo, Norway).
(§3) Serine proteinases were incubated with various concentrations of Kunitz Domain variant for 30 min. Substrate (0.6 mM) was then added and residual proteinase activity was measured at 405 nm.
(§4) The four variants were purified from yeast culture medium. Their concentrations were determined from the absorbance at 214 nm using BTPI as a standard. Porcine trypsin was obtained from Novo Nordisk A/S (Bagsvaerd, Denmark, bovine chymotrypsin (TLCK treated) was obtained from Sigma Chemical Co. (St. Louis, Mo., U.S.A.). Truncated human recombinant tissue factor was obtained from Corvas (San Diego, Calif., U.S.A.). Human plasmin was from Kabi (Stockholm, Sweden). Human neutrophil cathepsin G and elastase were purified from extracts of PMNs according to the method described by Baugh and Travis (Biochemistry 15 (1976) 836-843).
(§5) Peptidyl nitroanilide substrates, S2251, S2586 were from Kabi (Stockholm, Sweden). S7388 and M4765 were from Sigma Chemical Co. (St. Louis, Mo., U.S.A.).
(§6) Serine proteinases were incubated with various concentrations of the variants for 30 min. Substrate ([…]) was then added and residual proteinase activity was measured at 405 nm.

[6] = biological target: T2, Human neutrophil elastase (Homo sapiens, UniProt P08246); experiment: Inhibition of serine proteinases: neutrophil elastase; format: biochemical; conditions: Example 9; for Ki: enzyme 4 nM, substrate M4765, 30 min incubation, read-out: Apparent Ki (nM), N. elastase
T2 construct: Human neutrophil elastase and cathepsin G was purified from extracts of PMNs; from tissue; host or cells: extracts of human polymorphonuclear leukocytes (PMNs), method of Baugh and Travis
T2 sequence (P08246 30-267): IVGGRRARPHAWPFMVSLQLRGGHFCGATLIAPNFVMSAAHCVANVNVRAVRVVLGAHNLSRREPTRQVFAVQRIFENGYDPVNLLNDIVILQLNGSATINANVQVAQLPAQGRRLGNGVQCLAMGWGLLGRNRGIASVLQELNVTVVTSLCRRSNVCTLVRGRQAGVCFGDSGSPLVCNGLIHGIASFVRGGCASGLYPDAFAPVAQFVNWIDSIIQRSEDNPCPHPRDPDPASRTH
Experimental: (§7) KFN 1593 was purified from yeast culture medium as described in example 1. The concentration of KFN 1593 was determined using 1% E280 nm =8.3 and Mw =6500. Porcine trypsin was from Novo Nordisk (Bagsv.ae butted.rd, Denmark), bovine chymotrypsin (TLCK treated) and porcine pancreatic kallikrein was from Sigma Chemical Co (St. Louis, Mo., U.S.A.), human plasmin and human plasma kallikrein was from Kabi (Stockholm, Sweden).
(§8) Human neutrophil elastase and cathepsin G was purified from extracts of PMNs according to the method described by Baugh and Travis (Biochemistry 15 (1976) 836-843). Peptidyl nitroanilide substrates, S2251, S2586, S2266, S2302 were from Kabi (Stockholm, Sweden). M4765 and S7388 was from Sigma Chemical Co (St. Louis, Mo., U.S.A.) and FXa-1 was from NycoMed (Oslo, Norway).
Serine proteinases were incubated with various concentrations of KFN 1593 for 30 min. Substrate was then added and residual proteinase activity was measured at 405 nm. […]
as §4, §5, §6

[7] = biological target: T3, Human neutrophil cathepsin G (Homo sapiens, UniProt P08311); experiment: Inhibition of serine proteinases: neutrophil cathepsin G; format: biochemical; conditions: Example 9; enzyme 50 nM, substrate S7388, 30 min incubation; read-out: Apparent Ki (nM), N. cathepsin G
T3 construct: Human neutrophil cathepsin G was purified from extracts of PMNs; from tissue; host or cells: extracts of human polymorphonuclear leukocytes (PMNs), method of Baugh and Travis
T3 sequence (P08311 21-255): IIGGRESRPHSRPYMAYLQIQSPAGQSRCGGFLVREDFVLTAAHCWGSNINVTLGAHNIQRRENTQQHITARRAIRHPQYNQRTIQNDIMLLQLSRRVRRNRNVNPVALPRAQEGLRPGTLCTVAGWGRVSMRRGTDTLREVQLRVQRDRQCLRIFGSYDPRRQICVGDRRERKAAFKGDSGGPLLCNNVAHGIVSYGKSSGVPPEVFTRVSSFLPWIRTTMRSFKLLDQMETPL
Experimental: as §7, §8
(§9) Serine proteinases were incubated with various concentrations of KFN 1593 for 30 min. Substrate was then added and residual proteinase activity was measured at 405 nm.
as §1, §2, §3, §4, §5, §6

[8] = biological target: Human plasmin (Homo sapiens, UniProt P00747); experiment: Inhibition of serine proteinases: plasmin; format: biochemical; design: human plasmin and human plasma kallikrein was from Kabi (Stockholm, Sweden); purchased Kabi (Stockholm, Sweden); conditions: Example 9; enzyme 4 nM, 30 min incubation; read-out: Apparent Ki (nM), Plasmin
Sequence of Human plasmin (P00747 581-810 limits assumed): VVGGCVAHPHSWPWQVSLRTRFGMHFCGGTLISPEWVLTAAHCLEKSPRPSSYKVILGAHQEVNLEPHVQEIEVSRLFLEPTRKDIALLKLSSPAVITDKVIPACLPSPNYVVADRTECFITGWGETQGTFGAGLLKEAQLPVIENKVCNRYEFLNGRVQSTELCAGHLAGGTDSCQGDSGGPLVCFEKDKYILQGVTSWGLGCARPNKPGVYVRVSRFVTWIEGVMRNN
Sequence of Human plasmin (P00747 97-580 limits assumed): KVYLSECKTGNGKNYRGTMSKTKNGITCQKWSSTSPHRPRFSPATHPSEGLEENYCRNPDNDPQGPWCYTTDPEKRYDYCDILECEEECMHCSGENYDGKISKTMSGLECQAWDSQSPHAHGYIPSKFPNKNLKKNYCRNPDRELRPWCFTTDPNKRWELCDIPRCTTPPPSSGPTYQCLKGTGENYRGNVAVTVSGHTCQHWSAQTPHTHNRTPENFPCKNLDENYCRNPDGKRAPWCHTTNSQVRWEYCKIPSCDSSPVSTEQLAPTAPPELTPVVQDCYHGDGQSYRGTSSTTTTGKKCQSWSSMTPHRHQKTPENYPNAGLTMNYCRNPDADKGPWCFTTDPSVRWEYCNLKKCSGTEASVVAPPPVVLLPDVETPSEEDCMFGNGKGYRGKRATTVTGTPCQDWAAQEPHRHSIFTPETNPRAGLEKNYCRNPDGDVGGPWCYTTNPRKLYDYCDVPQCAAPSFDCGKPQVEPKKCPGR
Experimental: as §7, §8, §9, §1, §2, §3, §4, §5, §6

[9] = biological target: T4, Porcine trypsin (Sus scrofa, UniProt P00761); experiment: Inhibition of serine proteinases: trypsin, peptidyl nitroanilide substrate, residual activity at 405 nm; format: biochemical; conditions: Example 9; enzyme 10 nM, substrate S2251, 30 min incubation; read-out: Apparent Ki (nM), Trypsin
T4 construct: purchased Novo Nordisk (Bagsvaerd, Denmark; the applicant itself)
T4 sequence (P00761 9-231): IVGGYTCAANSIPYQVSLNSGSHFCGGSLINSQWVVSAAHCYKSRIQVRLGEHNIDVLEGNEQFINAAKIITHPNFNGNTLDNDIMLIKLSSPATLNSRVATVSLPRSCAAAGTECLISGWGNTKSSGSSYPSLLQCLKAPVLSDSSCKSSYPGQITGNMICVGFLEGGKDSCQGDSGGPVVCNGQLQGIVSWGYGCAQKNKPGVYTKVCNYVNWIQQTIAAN
Experimental: as §7, §8, §9, §1, §2, §3, §4, §5, §6

[10] = biological target: T5, granulocyte elastase (Homo sapiens, UniProt P08246); conditions: Wenzel and Tschesche 1981; cited from earlier work
T5 sequence (P08246 30-267): T2 sequence (P08246 30-267)

| Substance | Ki [1] [nM] | apparent Ki [2] [nM] | Ki [5] [nM] | neutrophil elastase inhibition (in words) [6] | Ki [6] [nM] | Ki [7] [nM] | Ki [8] [nM] | Ki [9] [nM] | other results |
| --- | --- | --- | --- | --- | --- | --- | --- | --- | --- |
| [R15L, G16A]-TFPI-2 from yeast strain KFN-1893 (from UniProt P10646) | 0.23 | 0.23 |  |  |  |  |  |  | apparent Ki [3]: < 5 nM; Ki [4]: < 5 nM |
| [R15L]-TFPI-2 [KFN 1928] |  |  | < 5 | strong inhibitors | 2.2 | > 1000 | > 1000 | > 1000 |  |
| [R15L]-TFPI-2 from yeast strain KFN-1928 (from UniProt P10646) | 2.2 |  |  |  |  |  |  |  | residual proteinase activity at 405 nm (apparent Ki) [2]: 2.2 nM; apparent Ki [3]: < 5 nM; Ki [4]: < 5 nM |
| [R15V, G16A]-TFPI-2 [KFN 1897] |  |  | > 100 | strong inhibitors | 0.46 | > 1000 | > 1000 | > 1000 |  |
| [R15V, G16A]-TFPI-2 from yeast strain KFN-1897 (from UniProt P10646) | 0.46 | 0.46 |  |  |  |  |  |  |  |
| [R15V]-TFPI-2 [KFN 1898] |  |  | > 100 | strong inhibitors | 0.35 | > 1000 | > 1000 | > 1000 |  |
| [R15V]-TFPI-2 from yeast strain KFN-1898 (from UniProt P10646) | 0.35 | 0.35 |  |  |  |  |  |  |  |
| aprotinin (1-58, Ala15) |  |  |  |  |  |  |  |  | effect on granulocyte elastase (in words) [10]: weak effect |
